Laboratory results published in the DeepSol protein solubility set.

assay: soluble on expression in E. coli; label from the status in PepcDB or PDB records

Soluble on expression in E. coli, soluble:
MAHHHHHHMVMNDITKSDTHERKDEVTMDKGGMFNNFFECMNEQMKRIDRYHEDMSRMMNSMRTHYFSDELSKYFPSRRSLLDYDLGDARRNDLFFGKPQFLMDRFKNVPPMDVVDKDKEIEIKIDVPGLSKDNVQINLYNRNLEVSGDFKKTEETRDDEQRYYVKERSQTSFYRSFQLPENVCEDNIKATFKDGVLKIDIPKKDVLPEKKKKIEIQ
MAHHHHHHNQQNKKVEGGYECKYCTFQTPDLNMFTFHVDSEHPNVVLNSSYVCVECNFLTKRYDALSEHNLKYHPGEENFKLTMVKRNNQTIFEQTINDLTF
MAHHHHHHSAARRRASGENLQQTRPIAAANLQWESYAEALEHSKQDHKPIGLFFTGSDWCMWCIKMQDQILQSSEFKHFAGVHLHMVEVDFPQKNHQPEEQRQKNQELKAQYKVTGFPELVFIDAEGKQLARMGFEPGGGAAYVSKVKSALKLR
MAHHHHHHSLKQKNAYNRLTNHYDDVLTGRKWWSWLYMHCLWKTDDNIIAGSVLDMIPGNFEGRILDVPVGTAIFTYDKYRRMPQAEIVGLDYSQEMLDIAAMRFSAEQITNVSLRQGDVGSLPFPDAAFDLVLSMNGFHVFPDKDRAFAETFRVLRGGGLFCGCFYVKGERKPADWFVRKFLDKKGLFRPPHYTREEAIEKLRSLYGDNVEIQDARSLLVFKCTKPREG
MAHHHHHHSLSDLKIARIDVFQVDLPYSGGVYYLSAGREYRSFDATIVRITTDTGIEGWGESTPFGSNYIASHPRGVRAGIATMAPSLIGLDPRRVDRINDAMDDALLGHEDAKTAIDVACWDIFGKSVGLPVCELLGGRTNTRLPLISSIYVGEPEDMRARVAKYRAKGYKGQSVKISGEPVTDAKRITAALANQQPDEFFIVDANGKLSVETALRLLRLLPHGLDFALEAPCATWRECISLRRKTDIPIIYDELATNEMSIVKILADDAAEGIDLKISKAGGLTRGRRQRDICLAAGYSVSVQETCGSDIAFAAIVHLAQTIPERSLRCILECRDMVTVKTADGAFDIQDGFATAPTTPGLGIMPRLDVLGEAVASYF
MAIEIKVPDIGADEVEITEILVKVGDKVEAEQSLITVEGDKASMEVPSPQAGIVKEIKVSVGDKTQTGALIMIFDSADGAADAAPAQAEEKKEAAPAAAPAAAAAKDVNVPDIGSDEVEVTEILVKVGDKVEAEQSLITVEGDKASMEVPAPFAGTVKEIKVNVGDKVSTGSLIMVFEVAGEAGAAAPAAKQEAAPAAAPAPAAGVKEVNVPDIGGDEVEVTEVMVKVGDKVAAEQSLITVEGDKASMEVPAPFAGVVKELKVNVGDKVKTGSLIMIFEVEGAAPAAAPAKQEAAAPAPAAKAEAPAAAPAAKAEGKSEFAENDAYVHATPLIRRLAREFGVNLAKVKGTGRKGRILREDVQAYVKEAIKRAEAAPAATGGGIPGMLPWPKVDFSKFGEIEEVELGRIQKISGANLSRNWVMIPHVTHFDKTDITELEAFRKQQNEEAAKRKLDVKITPVVFIMKAVAAALEQMPRFNSSLSEDGQRLTLKKYINIGVAVDTPNGLVVPVFKDVNKKGIIELSRELMTISKKARDGKLTAGEMQGGCFTISSIGGLGTTHFAPIVNAPEVAILGVSKSAMEPVWNGKEFVPRLMLPISLSFDHRVIDGADGARFITIINNTLSDIRRLVM
MAIQLSKGQRIDLTKTNPGLTKAVIGLGWDTNKYSGGHDFDLDASAFLVDAHDNCVNDLDFVFYNNLEHPSGGVIHTGDNRTGEGDGDDEQIIVDFSKIPAHIEKIGITVTIHDAEARSQNFGQVSNAFVRVVDEETQNELLRFDLGEDFSIETAVVVCELYRHGGEWKFNAIGSGFSGGLAALCRNYGLQVLEHHHHHH
MAISGVTLEESVRGAIDDLRMKKSRYVMMCIGADGKKIEVTEVGERSVNYTDLKEKFSTEKPCYVAFDFEYNDAGSKREKLILIQWIPDTARPREKMMYSASRDALSSVSEGYLPIQANDESGLDAEEIIRKVRLHRSVAAALE

Soluble on expression in E. coli, not soluble:
MAHHHHHHMTNKKKMSNSETGGTRCVYVLSDIDGFKYRLVMEGDVRLLTTSKLKRYLQNATGLSAQQQELSFRGRVMQDGECGGDVGLVDGAVLQLRHVKGMRRTNSGDGRRVNRLPSSSMSMGGVAHRGRSSVVDAASCASPTAGLLTPLQGSHPRDGQNGGEAFTSPPPREMNYRSKRMGREAHALEIENARLEERLLEMERRLANASSDWRLQEEIEQLKGIIAQLLREKEAVGRSAEEKWRAKEEELVKELDLMREERRRLHREQTLFEEEQRALVRSLEEQVRSQQQRLLEQGTTITQQTRQRQPAMNVAEKVEKSLKQLSLELNIPQLHLDDNDTCVLPLGDGTNILVTLDTITERLFMYAVIANSLPSNAGKRLELFEMLLEGALLGRDMATGGVGVCLRNELIIMNVCVDIVHADEYALASIARPFMESVQHWSEAVKKMMPEKKN
MAHHHHHHMTQQRGKKAAPSKAAVANASASAPDPPPFFSMGPATFTDAIVITKVISVVLPLRHLRDRNILHTTLLKKLLHRPYEASAEDLAQQQLSQQETDDGGKHDCGAHSALDNLAAPTSSSSSTPYVIVHIKSAEIHADTARQVNPRGDVQVNVMVTLVAARLQHGICAGVSEASPFTSCMQVRVPTVAVSAAVAARGSTDDAATLLLGDALEAGADNVSQEGVKDEKAEPSGGDTALDASVSATTTAAAAKRSCCTGIPADQQLRVTARCLEDEPIVPGQAVLLISEPAAMRCMGIRPPRAAPGSFYLTETTQPSAQFSSGEAEGGPEARPKKRARKSRASAGGTGGATPARRIVSIECAIPKREEDGEGGAAAGPRKGPRKRPHT
MAHHHHHHMTTLPVLHLKATSLQNVTIAADLSDTTATLYTFLRSTPSAAETELALQPFLESLHAAPSSGRAALMRRPNHHLVQLLESVAVDGVFRCTPHVLPALARHSDRWLHRLGYASMDGEAANLTAVMDSSAHAASGSQRSASPPTAAPFPIMRVRATDMHQYVDPYSAYEADYLGRQEAARSSYVDASASGEARLPTNGSAAESGGLQHRDTTHPHEEASSVSAEVSALTAPGDEPQLSEPAPSASHAVTPAPTAALTSAPAIHPVLHLIANQVLQQQEEGEKTGRENAEERAHPSSSHAVLDEKLHRLMAQLNEAETQLTAAMAEKEATEQVWLPYYSRLKTSRVYVNELKSRLQSAASLYLLQRYERETLQQAHIGVAMESISLQLVLRDVRARLEDEQRSSLTDGHHQATESDRLAQQLSAVLGVPAAASQRNAACDRTN
MAHHHHHHMVAKRKEFELTKVIQEATFLTFKGLDTHDVYNCCVPFKISGTYHIFGRVERRSEWVNSHVRLFRKTGHDEYTLVEHAMQYQLEDPFLVKINNEALFGGVRVTKDHGKVSGYVCDFYRGKIDDLHYFTSGPQNMKDIRLVVLADGKIGVFSHHKTSNTCITGFTIIDSLDDLCSQVIDSAKPIDHTLFGDAWGGVNQPYLLSTGKIGCISHHGYLDTDAHGEVINVYCITSFVYQPSANKCYDYKILGTKNCFPDYPAKALKLIDCAFVSGIVMREDGKCDLYSGVGDTREGRMVIDYPFEGHGTIADDLDF
MAHHHHHHMVHWVISQFTTNVGLQQKSSIELLNEANREYESSSPFSVLVQHERAVERLTTAQRGLAASGAGSLARLDRDQLPSWTLRVIDEDCTMCFDNVTYASAVAADAGRSTNKTGHHKQKGLSVFATTSAPLGLMGPMLFAMASVTDDVDVAAELPRWQWVTWSYAQQRRFVHASQSRSTGERPRHLIVLGIPSTDQPMRYPLRDAQRATWLTYREVARTENNFTGALLQLYVFAAAEHDSEDSTHSAVDMVQLAPTVSEYAAATEQHLAVEAGDVNNAPPYLQRRVVLRDGWRDIPRSDDAVWRSPCAGVRTTVVTAASLVAGTSSLAALSAQLSLPVTPAFTAAAQYVCHVSAALWQEALHHRNSLWLDFLTDRKPTTKKKMGMSISWGIPTEVGMSQKTVLWLNYAYTAFPDVPYIMKGDDDMYLKVPQYLSDLRHVRGGWQKPRNLTVTIPHRGVIPPTLAIDDAEECLYRVWWTYSKKIAYGNGVGYILDRRLIQAALNPFDGFNALLMKLLTNPYDYRLEKEYLSLNMQYEDMHIGKQIRDHHDAVERFCPKKRVCYMADRRFRAHQILRPKPVKLTWISVMAHFGMPAIPYYVHYFHKNEFKVAEEAKRLIAQGIDAKTIEENATQRMHEWVASQVPSTLVGLGASFHLDWVRGDPHTAYTVAEEDEVAVYDVRYKLRRRNDVACVLESGKR
MAHHHHHHMYVRSISKELTKRMYNPSGHRIMMMDLKNKTTNNILNSRRYIVSYTKVHRTHYLEDYYTNPEIATNMISPMSEYIWWSWLLLQVN
MAHNNYLDLEMLFNECNAQHYENLGMFFKWLQQFAAHHEDPKITIKDFKGDKTSGEMILHVNTFTLFKYRQEFDMKVSALNDNGLGWKILFVDRSLGCN
MAIFRDQAENHVEHDRSIEDRRRHRQLVEKSIKENLGDILSEESIIGETKNKKYKIPIRGIKEYQFIYGANNKGVTTGTGEERRGDRISSDKRKAISNNKAGNQEGKDIYETEITLEELMDYIVEDLDLPNLDRKKYSEIIVESAAKKRGYQKYGVRPRLAKKKTVMCKIARKQGKKRALREIGEEAEIGRFPFREDDLRYYKVKKHPKKESNAVMIFIMDVSGSMDNTKKYLARSFFFVLSRFIRRKYNNVAFEFISHTTTAKNVNEYEFFHKGESGGTYISSGINAAIDLIKEKYNPGVWNIYPFYASDGDNWSEDNEKAMEAVNEISDLSNMFGYIELLPSTYSTTMFYRFKKEISKENFVSVTVKEKKDLWNAIKYMLSEELQEKNKELEHHHHHH
MAIKGLEQAVENLSRISRTAVPGAAAMAINRVASSAISQSASQVARETKVRRKLVKERARLKRATVKNPQARIKVNRGDLPVIKLGNARVVLSRRRRRKKGQRSSLKGGGSVLVVGNRRIPGAFIQQLKNGRWHVMQRVAGKNRYPIDVVKIPMAVPLTTAFKQNIEQIRRERLPKELGYALQHQLRMVIKR
MAILAFDLGGSSVKYGVWTGKELTNQGSFPTPGSWEEMKAHLYSVYADKRNESISGVAFSSPGVVDEKSQQILGISAIPYIHHFNIYEELEALFGLPVTIENDANCAGLAEIYEGAAKGKKEVLFVVIGTGIGGAIFRNGELYKGAHLYGGEFGLNFLSNGQTFSEIGTAVKMAQRYCERIGVEKQAVTGEEVFELAQRGDEIAREEVNNFYDYLTQGLFGLQFSYDPEMIVLGGGVSAKEGLLAEINRRMLTHLQTFELKDFVPEIVTCHYQNDANLIGAAANFQAKTNWEL
MAILQIGAGGVGWVVAHKAAQNNDVLGDITIASRTVGKCEKIIESIQKKNNLKDSTKKLEARAVNADDVDSLVALIEEVKPDLVINAGPPWVNMPIMEACYRAKVSYLDTSVAVDLCSEGQQVPEAYDWQWGYREKFEE
MAIPKLQSYALPTALDIPTNKVNWAFEPERAALLIHDMQDYFVSFWGRNCPMMDQVIANIAALRQYCKEHHIPVYYTAQPKEQSDEDRALLNDMWGPGLTRSPEQQKVVEALTPDEADTVLVKWRYSAFHRSPLEQMLKDTGRNQLIITGVYAHIGCMTTATDAFMRDIKPFMVADALADFSREEHLMALNYVAGRSGRVVMTESLLPTPVPASKAALRALILPLLDETDEPLDDENLIDYGLDSVRMMGLAARWRKVHGDIDFVMLAKNPTIDAWWALLSRGVE
MAISVFDMFKIGIGPSSSHTVGPMRAGALFVTELRNQNRLHSVERIEVRLYGSLSATGIGHGSDRATVMGLMGEWPDQIDPSQVNQRIDALRADNQLMLAGEQAITFVWERDMCLLDESLPYHPNGMTLCAYGKTGEVHEQTYYSVGGGFVIDAEQAASGV
